We go through four molecules from patent publication US8734776B2 (ZymoGenetics, Inc., priority 2003, dated 2014).

Read-outs that look alike come from different tables or passages of the source.

For one series, the system named is HCV replicon. The settings on record: replicon clones; IFNα at 10 IU/ml; cited from earlier work.
In a further series the test system is IL-28RA mRNA. Description: Semi-quantitative RT-PCR of IL-28RA, IFNAR2 and CRF2-4 mRNA. Format: cell-based, human. The settings on record: HepG2 cells + cytokine. As to the method: In order to further examine the mRNA distribution for IL-28RA, semi-quantitative RT-PCR was performed using the SDS 7900HT system (Applied Biosystems, CA). One-step RT-PCR was performed using 100 ng total RNA for each sample and gene-specific primers. A standard curve was generated for each primer set using Bjab RNA and all sample values were normalized to HPRT. The normalized values for IFNAR2 and CRF2-4 are also shown.

The subject of another series is Human Daudi cells. As to the kind of experiment: Daudi cell proliferation (Alamar Blue). Format: cell-based. The settings on record: 1000 ng/ml to 0.5 ng/ml; 72 h. The procedure: Human Daudi cells were suspended in RPMI+10% FBS at 50,000 cells/milliliter and 5000 cells were plated per well in a 96 well plate. […] IL-29-CEE was used at a concentration range of from 1000 ng/ml to 0.5 ng/ml. […] IFN-α2a was used at a concentration range of from 62 ng/ml to 0.03 ng/ml. Cells were incubated for 72 h at 37° C. […] Plates were farther incubated at 37° C., 5% CO2, for 24 hours.
On the technique in general: The colour change of resazurin is a common sign of viable cells or microbes.

Series [1] has as its system human peripheral blood mononuclear cells. As to the kind of experiment: Induction of IL-28A, IL-29, IL-28B RNA in PBMCs by poly I:C and viral infection. The settings on record: poly I:C 100 μg/ml, 15 h.
The test system of series [2] is vaccinia virus. It is filed as cell-based. The following applies: Vero cells.
The subject of series [3] is polio virus. It is filed as cell-based. The settings on record: Vero cells.
Series [4] has as its system vaccinia virus. It is filed as cell-based. The following applies: Vero cells. The source holds these as a separate data set.
The subject of another series is HHV-8. Description: HHV-8 replication in BCBL-1 cells (TaqMan PCR).
In the next series the test system is OAS. Description: OAS activity in serum and plasma of mice (RIA). The following applies: C57BL/6 mice; i.v; 10 μg-250 μg.
The test system of series [5] is respiratory syncytial virus. It is filed as cell-based. The following applies: MA-104 cells.
For series [6], the system named is coxsackie virus. Format: cell-based. The following applies: Coxsackie B4 virus, KB cells.
Series [7] relates to influenza virus. Format: cell-based. The following applies: Influenza (type A [H3N2]).
In series [8] the test system is parainfluenza virus. It is filed as cell-based. The settings on record: MA-104 cells.
The subject of series [9] is pichinde virus. Format: cell-based.
For series [10], the system named is respiratory syncytial virus. It is filed as cell-based. The settings on record: MA-104 cells. The source holds these as a separate data set.
The subject of series [11] is encephelomyocarditis virus. Description: Antiviral assay: cytopathic effect in L929 cells. It is filed as cell-based, mouse. A general note: Protection from cytopathic effect is a common read-out in antiviral testing.
Series [12] has as its system ISG gene expression (OAS, Pkr, Mx1). Description: ISG gene induction in liver, spleen and blood of injected mice. Format: in vivo, mouse. The settings on record: C57BL/6 mice; i.p or i.v; 10 μg-250 μg. The procedure: In addition, E. coli derived IL-29 was also tested in in vivo assays as described above using MetIL-29C172S-PEG and MetIL-29-PEG. At various time points and at different doses, ISG gene induction was measured in the blood, spleen and livers of the mice.
Mice were sacrificed at various time points (1 hr-48 hr). Spleens and livers were isolated from mice, and RNA was isolated. RNA was also isolated from the blood cells. The cells were pelleted and RNA isolated from pellets using RNAEasy®-kit (Qiagen). RNA was treated with DNase (Amicon) to rid RNA of any contaminating DNA. cDNA was generated using Perkin-Elmer RT mix (Perkin-Elmer). ISG gene induction was measured by real-time PCR using primers and probes specific for mouse OAS, Pkr and M×1. To obtain quantitative data, HPRT real-time PCR was duplexed with ISG PCR. A standard curve was calculated using known amounts of IFN-stimulated mouse PBLs. All data are shown as expression relative to internal HPRT expression.
Results shown are fold expression relative to HPRT gene expression. […] The data shown is the average expression from 5 different animals/group.
Data shown is fold expression over HPRT expression from livers of mice. Similar data was obtained from blood and spleens of mice.

In series [13] the test system is parainfluenza virus. It is filed as cell-based. The settings on record: MA-104 cells. This is another data set of the same source.
The subject of series [14] is polio virus. It is filed as cell-based. The following applies: Vero cells. The source holds these as a separate data set.
The test system of series [15] is human Daudi B lymphoid cells. As to the kind of experiment: Induction of interferon-stimulated genes in Daudi cells (RT-PCR). It is filed as cell-based. The following applies: 72 hours, conditioned medium from Sf9 cells. The source says:
Interaction of type 1 interferons with their specific receptor leads to induction of a number of genes responsible for their antiviral/antiproliferative activity. These include 2′-5′ oligoadenylate synthetase (2-OAS), double-stranded RNA dependent Pkr kinase (Pkr), phospholipid scramblase, and intercellular adhesion molecule-1 (ICAM-1). Induction of genes with as yet unknown function, such as a 56 kDa interferon stimulated gene product (ISG-56k), also occurs. […] Conditioned medium from Sf9 cells infected with wild-type baculovirus was used as a negative control. Following treatment cells were collected and lysed for isolation of total RNA. One microgram of total RNA was converted to cDNA using reverse transcriptase and used as a template for polymerase chain reaction using oligonucleotide primers specific for the human interferon-stimulated genes described above. Oligonucleotide primers for human […] (G3PDH) were used as a non-interferon stimulated gene control.

Series [16] has as its system dengue virus. It is filed as cell-based. The following applies: Vero cells.
The subject of series [17] is encephelomyocarditis virus. As to the kind of experiment: Antiviral assay: cytopathic effect in HeLa cells. Format: cell-based, human.
Series [18] concerns west nile virus. It is filed as cell-based. The settings on record: Vero cells.
Series [19] deals with venezuelan equine encephalitis virus. Format: cell-based. The following applies: Vero cells.
In series [20] the test system is influenza virus. It is filed as cell-based. The following applies: Influenza (type A [H3N2]). This is another data set of the same source.
Series [21] has as its system venezuelan equine encephalitis virus. Format: cell-based. The settings on record: Vero cells. This is another data set of the same source.
For series [22], the system named is west nile virus. It is filed as cell-based. The following applies: Vero cells. This is another data set of the same source.
For series [23], the system named is pichinde virus. Format: cell-based. This is another data set of the same source.
Series [24] concerns adenovirus. Format: cell-based. The settings on record: A549 cells.
Series [25] concerns adenovirus. Format: cell-based. The following applies: A549 cells. The source holds these as a separate data set.
A further series deals with BVDV. As to the kind of experiment: BVDV CPE inhibition assay in MDBK cells. It is filed as cell-based. The following applies: MDBK bovine kidney cells. As to the method:
IFNα and RIBAVIRIN® were used as positive controls. Test sample were added at the time of viral infection.

In series [26] the test system is rhino virus. It is filed as cell-based.
For series [27], the system named is dengue virus. It is filed as cell-based. The following applies: Vero cells. The source holds these as a separate data set.
For series [28], the system named is rhino virus. Format: cell-based. This is another data set of the same source.
The test system of series [29] is coxsackie virus. Format: cell-based. The settings on record: Coxsackie B4 virus, KB cells. The source holds these as a separate data set.
Where [30] appears, read: Maden-Darby Canine Kidney cells.

In the case of IFNα [reference compound], the “reduction of the amount of HCV RNA compared to untreated control cell lines” value in the series on HCV replicon was 85%. For the same molecule, in the series on IL-28RA mRNA, the “CRF2-4 mRNA normalized to HPRT” value stood at 3.05, the “IFNAR2 mRNA normalized to HPRT” value came to 3.00 and the “IL-28RA mRNA normalized to HPRT” value came out at 2.61.

In the case of “IL-29-CEE: IL-29 conjugated with glu tag”, the “effect on proliferation of Daudi cells” value with Human Daudi cells is “no significant effect”.

With “polyinosinic acid-polycytidylic acid [poly I:C]”, the “amount of IL-28A, IL-29, IL-28B RNA” value in series [1] is “increased”.

B1: IL-28A: human IL-28A, previously designated zcyto20, SEQ ID NO:2 (protein, listed as Homo sapiens)
chain: MKLDMTGDCTPVLVLMAAVLTVTGAVPVARLHGALPDARGCHIAQFKSLSPQELQAFKRAKDALEESLLLKDCRCHSRLFPRTWDLRQLQVRERPMALEAELALTLKVLEATADTDPALVDVLDQPLHTLHHILSQFRACIQPQPTAGPRTRGRLHHWLYRLQEAPKKESPGCLEASVTFNLFRLLTRDLNCVASGDLCV
modifications: SIGNAL (1)...(25)
As for B1, the “EC50 NR” value was over 10 µg/mL in the series on vaccinia virus [2]; over 1.672 µg/mL in the series on polio virus [3]; over 10 µg/mL in the series with pichinde virus [9]; over 10 µg/mL in series [10]; over 10 µg/mL in the series on parainfluenza virus [13]; 0.1 ng/mL with west nile virus [18]. Further, the “EC50 NR” value was over 10 µg/mL with influenza virus [20] (setting [30]); 0.25 µg/mL with influenza virus [20] (Vero cells); 0.035 µg/mL in series [21]; over 10 µg/mL in the series on adenovirus [25]; over 10 µg/mL in the series on rhino virus [26] (Rhino 2, KB cells); 1.726 µg/mL in the series with rhino virus [26] (Rhino 9, HeLa cells). In addition, the “EC50 NR” value in the series with dengue virus [27] was 0.1 µg/mL; in the series on coxsackie virus [29] it was over 10 µg/mL. The “IC50 NR” value (in the series on vaccinia virus [2]; in the series on polio virus [3]; in the series with pichinde virus [9]; in [10]; in the series with parainfluenza virus [13]; in the series on west nile virus [18]) was over 10 µg/mL in each case. The “IC50 NR” value with influenza virus [20] (setting [30]) was over 10 µg/mL; with influenza virus [20] (Vero cells), over 10 µg/mL; in [21], over 10 µg/mL; with adenovirus [25] it was over 10 µg/mL; in the series with rhino virus [26] (Rhino 2, KB cells), over 10 µg/mL; with rhino virus [26] (Rhino 9, HeLa cells), over 10 µg/mL. In addition, the “IC50 NR” value with dengue virus [27] and in the series with coxsackie virus [29] was over 10 µg/mL throughout. Besides, the “EC50 Visual” value with vaccinia virus [4] is over 10 µg/mL; in series [5] it was over 10 µg/mL; in the series on coxsackie virus [6] it was over 10 µg/mL; with influenza virus [7] (setting [30]), over 10 µg/mL; in the series with influenza virus [7] (Vero cells), 0.1 µg/mL; in the series on parainfluenza virus [8], over 10 µg/mL. In addition, the “EC50 Visual” value was over 10 µg/mL in the series with polio virus [14]; 0.01 µg/mL with dengue virus [16]; 0.01 µg/mL in [19]; 0.01 ng/mL in the series with west nile virus [22]; over 10 µg/mL in the series on pichinde virus [23]; over 10 µg/mL in the series on adenovirus [24]. The “EC50 Visual” value in the series on rhino virus [28] (Rhino 2, KB cells) was over 10 µg/mL; with rhino virus [28] (Rhino 9, HeLa cells) it was over 10 µg/mL. Besides, the “IC50 Visual” value (in the series on vaccinia virus [4]; in series [5]; in the series with coxsackie virus [6]; with influenza virus [7] (setting [30]); with influenza virus [7] (Vero cells); in the series with parainfluenza virus [8]) was over 10 µg/mL each time. The “IC50 Visual” value (in the series on polio virus [14]; in the series on dengue virus [16]; in series [19]; with west nile virus [22]; in the series on pichinde virus [23]; in the series with adenovirus [24]) was over 10 µg/mL each time. Besides, the “IC50 Visual” value with rhino virus [28] (Rhino 2, KB cells) was over 10 µg/mL; with rhino virus [28] (Rhino 9, HeLa cells), over 10 µg/mL. The molecule also came in with a TC50 in the series on BCBL-1 cells of over 10 µg/mL. For the same molecule, the “TI (TC50/IC50)” value in the series with HHV-8 was over 10. The “IC50 HHV-8 viral replication” value in the series with HHV-8 (extracellular HHV-8 DNA) was 1 µg/mL. Besides, the “OAS activity in the serum and plasma of mice” value with OAS is on record as “induced OAS activity”. In addition, the “Percentage Cytopathic Effect” value in series [11] (relative CM conc. .008X), in [11] (relative CM conc. .0156X), in series [11] (relative CM conc. .0325X), in series [11] (relative CM conc. .0625X), in series [11] (relative CM conc. .125X) and in [11] (relative CM conc. .25X) was 87% in each case. The “Percentage Cytopathic Effect” value is on record as 87% in [11] (relative CM conc. .5X); 10% in series [17] (relative CM concentration .008X); 2.5% in series [17] (relative CM concentration .0156X); 5% in [17] (relative CM concentration .0325X); 2.5% in series [17] (relative CM concentration .0625X); 0% in [17] (relative CM concentration .125X). Besides, the “Percentage Cytopathic Effect” value in series [17] (relative CM concentration .25X) and in [17] (relative CM concentration .5X) was 0% each time. For the same molecule, in series [12], the “ISG gene expression (OAS, Pkr, Mx1) in the livers, spleen and blood of mice” value was “did not induce ISG gene expression”. Besides, in series [15], the “induction of ICAM-1” value is recorded as “No induction”. Further, in series [15], the “induction of ISG-56k, Pkr, 2-5 OAS and phospholipid scramblase” value is on record as “clear induction”. Further, the “IC50 inhibition of cell death induced by BVDV” value in the series on BVDV was 0.02 µg/mL.
